We go through one molecule from article PMC2363329, “Interaction of the PA2G4 (EBP1) protein with ErbB-3 and regulation of this binding by heregulin” (British Journal of Cancer, 2000).

For this experiment, the target named is T1, ErbB-3, endogenous in AU565 cells (human (endogenous in AU565), UniProt P21860 20-1342).
T1 construct: ErbB-3, endogenous in the human AU565 mammary carcinoma cell line; source: endogenous, AU565 lysate
Briefly: co-IP; AU565 cells untreated, HRG (10 ng ml-1, 15 min) or EGF (50 ng ml-1, 15 min); cytoplasmic fractions in IP buffer (50 mM Tris pH 8.0, 120 mM NaCl, 0.5% NP-40); ErbB-3 immunoprecipitation, blot with anti-p38-2G4 and anti-ErbB-3; densitometry. The conditions noted are these: partners not purified.

T1 sequence (P21860 20-1342): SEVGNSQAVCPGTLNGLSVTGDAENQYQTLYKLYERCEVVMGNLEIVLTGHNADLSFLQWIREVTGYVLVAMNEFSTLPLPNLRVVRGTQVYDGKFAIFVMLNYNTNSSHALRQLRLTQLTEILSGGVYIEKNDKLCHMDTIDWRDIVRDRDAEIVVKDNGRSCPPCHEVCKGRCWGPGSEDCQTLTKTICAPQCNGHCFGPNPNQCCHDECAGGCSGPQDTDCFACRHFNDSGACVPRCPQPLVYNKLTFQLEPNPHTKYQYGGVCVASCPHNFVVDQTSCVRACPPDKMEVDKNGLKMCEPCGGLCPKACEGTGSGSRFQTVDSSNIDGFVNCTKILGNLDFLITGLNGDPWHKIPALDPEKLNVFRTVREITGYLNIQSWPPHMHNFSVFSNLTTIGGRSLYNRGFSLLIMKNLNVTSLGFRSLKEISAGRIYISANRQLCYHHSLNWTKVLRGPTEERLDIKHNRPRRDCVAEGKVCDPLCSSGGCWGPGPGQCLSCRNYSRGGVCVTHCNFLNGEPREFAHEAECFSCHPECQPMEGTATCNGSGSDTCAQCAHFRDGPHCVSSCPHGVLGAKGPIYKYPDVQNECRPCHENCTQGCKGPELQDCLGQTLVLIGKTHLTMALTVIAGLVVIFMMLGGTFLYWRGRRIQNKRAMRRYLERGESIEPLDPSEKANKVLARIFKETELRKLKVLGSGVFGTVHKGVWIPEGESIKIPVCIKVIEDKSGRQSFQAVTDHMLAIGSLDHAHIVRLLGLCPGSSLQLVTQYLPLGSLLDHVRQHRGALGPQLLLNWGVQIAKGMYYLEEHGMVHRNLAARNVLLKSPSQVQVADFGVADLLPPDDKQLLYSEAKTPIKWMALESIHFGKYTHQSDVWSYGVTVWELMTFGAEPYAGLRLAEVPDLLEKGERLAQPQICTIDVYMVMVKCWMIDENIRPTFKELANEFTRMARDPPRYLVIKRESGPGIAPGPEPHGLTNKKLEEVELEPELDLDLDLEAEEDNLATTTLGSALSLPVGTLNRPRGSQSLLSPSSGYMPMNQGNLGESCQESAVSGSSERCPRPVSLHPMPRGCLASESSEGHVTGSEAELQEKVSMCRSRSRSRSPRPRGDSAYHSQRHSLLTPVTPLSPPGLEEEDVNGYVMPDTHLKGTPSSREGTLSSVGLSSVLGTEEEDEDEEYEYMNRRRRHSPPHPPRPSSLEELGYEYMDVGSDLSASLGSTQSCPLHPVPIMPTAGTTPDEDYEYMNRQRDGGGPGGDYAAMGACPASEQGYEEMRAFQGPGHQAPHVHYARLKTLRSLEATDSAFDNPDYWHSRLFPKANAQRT

B1: Ebp1, endogenous approximately 50 kDa protein in AU565 cells (natural protein, human (endogenous in AU565), UniProt Q9UQ80 1-394, looked up)
chain: MSGEDEQQEQTIAEDLVVTKYKMGGDIANRVLRSLVEASSSGVSVLSLCEKGDAMIMEETGKIFKKEKEMKKGIAFPTSISVNNCVCHFSPLKSDQDYILKEGDLVKIDLGVHVDGFIANVAHTFVVDVAQGTQVTGRKADVIKAAHLCAEAALRLVKPGNQNTQVTEAWNKVAHSFNCTPIEGMLSHQLKQHVIDGEKTIIQNPTDQQKKDHEKAEFEVHEVYAVDVLVSSGEGKAKDAGQRTTIYKRDPSKQYGLKMKTSRAFFSEVERRFDAMPFTLRAFEDEKKARMGVVECAKHELLQPFNVLYEKEGEFVAQFKFTVLLMPNGPMRITSGPFEPDLYKSEMEVQDAELKALLQSSASRKTQKKKKKKASKTAENATSGETLEENEAGD
notes: Ebp1 (PA2G4), endogenous full-length protein of approximately 50 kDa in the human AU565 mammary carcinoma cell line; predicted protein of 394 amino acid residues; also called PA2G4; source: endogenous, AU565 lysate
Consider B1, for which the “ratio of Ebp1 to ErbB-3 in ErbB-3 immunoprecipitates (densitometry), EGF-treated cells” value was determined as 1.3; the “ratio of Ebp1 to ErbB-3 in ErbB-3 immunoprecipitates (densitometry), control cells” value amounted to 1.6; the “ratio of Ebp1 to ErbB-3 in ErbB-3 immunoprecipitates (densitometry), heregulin-treated cells” value came out at 0.3.
